# Assay: yeast display, Sf9 membrane polyspecificity reagent, FACS + sequencing; frameworks hold sequencing errors
# Method in brief: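 After 36–48 hours of galactose induction, yeast (Saccharomyces cerevisiae BJ5465) displaying a synthetic nanobody library were stained at 4 °C for 1 hour with 10% biotinylated, detergent-solubilized Sf9 membrane reagent. Streptavidin microbeads enriched the stained cells before FACS sorting into low and high (top ~1%) gates on anti-HA and streptavidin fluorescence. Each clone's polyreactivity label reflects its gate of origin.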
row,Sequence,polyreactivity (PSR sort gate)
1,QVQLVESGGGLVQAGGSLRLSCAASGSTSDINAMGWYRQAPGKERELVAVITFSGGSTNYADSVKGRFTISRDNAKNTVYLQMNSLKPEDTAVYYCNADTLTTTRRFNPYDYWGQGTQVTVSS,low polyreactivity
2,QVQLVESGGGLVQAGGRLRLSCAASGLIFYDNMGWYRQPPGKERELVAAITWSGGSTYYADSVKGRFTISRDNAKNTVYLQMNSLKPEDTAVSYCNADLDSGYGSYDYWGQGTQVTVSS,low polyreactivity
3,QVQLVESGGGLVQAGGSLRLSCAASGRTFKRYAMGWYRQAPGKERELVAGISRGGNTNYADSVKGRFTISRDNAKNTVYLQMNSLNPEDTAVYYCNKDYSFEYSLRNRDYWGQGTQVTVSS,low polyreactivity
4,QVQLVESGGGLVQAGGSLRLSCAASGHTLAVNAKGWYRQATGKERELVAAITRSGVTTSYADSVKGRFTISRDNAKNTVYLQMNSLKPEDTAVYYCAAQLDASYLTGGWRRHYNYWGQGTQVTVSS,low polyreactivity
5,QVQLVESGGGLDQAGGRLPLTCAASGLIFYDNMGWYRHAPGKERELVAAISSSGGSTSYADSVKGRFTISRDNAKNTVFLQMICLKPEDTAVYYCAADSYPAYLGFVGFDYWGQGTIVTVSS,low polyreactivity
6,QVQLVESGGGLVQAGGSLRLSCAASGSTFLGNAMGWYRQAPGKEREFVAAITVSGGSTYYADSVKGRFTISRDNAKNTVYLQMNSLKPEDTAVYYCAARYLRYSSKTIQNEDYWGQVTQVTVSS,high polyreactivity
7,QVQLVESGGGLVQAGGSLRLSCAASGSTFWGNAMGWYRQAPGKERELVAAISTSDTSTYYADSVKGRFTISRDNAKNTVYLQMNSLKPEDTAVYYCAAEWYYGEKYDYWVQGTQVTVSS,low polyreactivity
8,QVQLVESGGGLVQAGGSLRLSCAASGRIFHHNVMGWYRPAPGKERELVAAISQSGGSTYYADSVKGRFTISRDNAKYTVYVQMNSLKPEDTAVYYCNAGAAGRRYNYWGQGTQVTVSS,low polyreactivity
9,QVQLVESGGGLEQAGGSLRLSCAASGGTFARYVMGWYRQAPGKERELVAAITSGGRTYYADSVKGRFTISRDNAKNTVYLQMNSLKPEDTAVYYCATAPRRRATSYYYWGQGTQVTVSS,high polyreactivity
10,QVQLVESGGGLVQAGGSLRLSCAASGRIFRWYAMGWYRQAPGKERELVAGINYGGGRTYYADSVKGRFTISRDNAKNTVYLQMNSLNPEDTAVYYCAAGISGHYYWGQGTQVTVSS,high polyreactivity
11,QGQLEESGGGLVQAGGSLRLSCAASGNTFRSYAMGSYRQAPGKERELVAAISGRGGSTYYADSVKGRFTISRDNAKYTVFVQLNSLKPDDTAVYYCAAESRRVNYANDDWGQGTQVTVSS,high polyreactivity
12,QVQLQESCGGLVQAGGSLRLSCAASGTIFRFRYMAWHRQAPGKERELVAGINGGTTTYYADSVIGLFTISRDNAKNTVYLQMNSLKPDDTAVYNCAAGASRLTYYDYWGQGTQVTVIS,low polyreactivity
13,QVQHVESGGGLVQAGGSLRLSCAASGFIFSKYAMGWYRPAPGKERELVAAITRSGGRTYYADSVKGRFTISRDNAKNTVYLQMNSLKPEDTAVYYCAASWLYFGRDYWGQGTQVTVSS,high polyreactivity
14,QVQLVESGGGLVQAGGSLRLSCAASGRTFPAYTMGWYRQAPGKERELVAAISRVGTTYYADSVKGRFTISRDNAKNTGYIQMNSLKPEDTAFYYCNARTWSWSFDYWGQGTLVTVSS,high polyreactivity
15,QVQLVESGGGLVQAGGSLRLSCAASGFIFNYNAMGWYRQAPGKERELVAAISGTGVRTYYADSVKGRFTISRDNAKNTVYLQMNSLKPEDTAVYYCNAYYGYIPVSGYRNDYWGQGTQVTVSS,low polyreactivity
16,QVQLVESGGGLVQAGGSLRLSCAASGSTSGKNAMGWYRQAPGKERELVAAIRNSGGTTYYADSVKGRFTISRDNAKNTVYLQMNSLKPEDTAVYYCATRYYLKFLDGYNYWGQGTQVTVSS,high polyreactivity
17,PVQLVESGGGLGQAGGSLRLSCAASGLTFGRYAMGWYRQAPGKERELVAAITRSGGRTYYADSVKGRFTISRDNAKNTVYLQMNSLKPEDTAVYYCNTRSHLGAPGDPDDYWGQGTQVTVTS,high polyreactivity
18,QVQLVESGGGLDQAGGSLRLSCAASGRTFGYNAMGWYRQAPGKERELVAAINWSGASTYYADSVKGRFTISRDNAKNTVYLQMNSLKPEDTAVYYCAARRKRVSFFPEYDYWGQGTQVTVSS,low polyreactivity
19,QVQLVESGGGLVQAGGSLRLSCAASGSIFDVYAMGWYRQAPGKERELVATISNSAGSTYYADSVKGRFTISRDNAKNTVYLQMNSLKPEDTAVYYCAAVVVYFDEYDYWGQGTQVTVSS,low polyreactivity
20,QVQLVESGGGLVQAGGSLRISCAASGSTFRGYAMGGYRQAPGKERDLVAAMSSNGDRTFYADSVKGRFTISRDNAMNTVYLLMNSLKAEDTAVYYCNAVYSGSWQLYGYWGQGSQVTVSS,high polyreactivity
21,QVQLVESGGGLVQAGGSLRLSCAASGSIFFFYALGWYRQAPGNERELVAAISKSPSSTYYADSVKGRFTISRDNAKKTVYVQMNSLKPEDTAVYYCNTGYSGIQYYYWGQGTQVTVSS,low polyreactivity
22,QVHLVESGGGLVQAGGSLRLSCASSGSIFGPYVMGWYRQAPRKERELVAAITWNGGSTNYADSLKGRFTISRDNAKNTVYLQMNSLKPEETAVYYCNTVSWPLSSKYYYWGQGTQVSVSS,high polyreactivity

row,Sequence,polyreactivity (PSR sort gate)
1,QVQLVESGGGLVQAGGSLRLSCAASGSIFPHNAMGWYRPAPGKERELVAAISSGGSTNYADSVKGRFTISRDNANNTVYLQLNSLKPEDTAVYYCAKSIDGWYWRRRRYDYWGQGTQVTVSS,low polyreactivity
2,QVQLVESGGGLVQAGGSLRLSCAASRFIFSSYVMGRYRQAPGKERELVAASRSGGSTNYADSVKGRFTISRDNAKNTVYLQMNSLKPEDTAVYYCAARGRLGQGYYYWGQGTLVTVSS,low polyreactivity
3,QVQLVESGGGLVQAGGSLRLSCAASGRTFAYNAMGWYRQAPGKEREFVAGISRSGGSTYYADSVKGRFTISRDNAKNTVYLQMNSLKPEDTAVYYCAAQFYALPNVGTKYYSWGQGTQVTVSS,low polyreactivity
4,QVQLVESGGGLVHAGGSLRLSCAASGRIFVGYTMGGYRQGPGKERELVAAISWDGDITYYADSVKGRFTISRDKAKNTVYLQMNSLKPEDTAVYYCAVDLPVSESHHTLTFELDYWGQGSQVTVSS,low polyreactivity
5,QVQLVESGGGLVQAGGSLRLSCAASGLTFQYYAMGWYRQAPGKEREFVAAITRRGGNTYYADSVKGRFTISRDNAKNTVYLQMNSLKPEDTAVYYCAARYLQGRYDYWGQGTQVTVSS,high polyreactivity
6,QVQLVESGGGLVQAGGSLRLSCAASGSTVNFYAMGWYRQAPGKERELVAAISWRGNTYYADSVKGRFTISRDNAKNTVYLQITSLKPEDTAVSYCDAYEWLAYTSAWYGYWGQGTQVTVSS,high polyreactivity
7,QVQLVESCGCLVQAGGSLRLSCAASGSTFRKYAMGWYRQAPGKEREFVAAITWSTGTTYYADSVKGRFTISRDNAKNTVYLQMNSLKPEDTAVYYCAADSQPPHELYESIEHESWGQGTQVTVSS,low polyreactivity
8,QVQLVESGGGLVQAGGSLRLSCAASGSTFLGNAMGWYRQAPGKERELVASIRWTTGSTYYADSVKGRFTISRDNAKNTVYLQMNSLKPEDTAVYYCAKGLYVQFDYWGLGTQVTVSS,low polyreactivity
9,QVQLVESGGVLVQAGGSLRLSCAASEIIFTFYAMAWYRQAPGKEMELVAAITSSGGRTYYADSVKGRFTISRDNAKNTVYLQMNSLKPEDTAVYYCAARLPGYVRKYDYWGQGTQVTVSW,high polyreactivity
10,QVQLVESGGGLVQAGGSLRLSCAASGLIFLYYTMGWYRQAPGKERELVAAISSAGRTNYADSVKGRFTISRDNAKNTVYLQMNSLKPEDTAVYYCNADGGWWARYGYWGQGTQVTVSS,low polyreactivity
11,QVQLVESGGGLVQAGGSLRLSCAASGSIFPDYAMGWYRTAPGKERELVAAISWDGGRTYYADSVKGRFTISRDNAKNTVYLQMNSLKPEDTAVYYCYWYDYWGQGTQVTVSS,high polyreactivity
12,QVQLVESGGGLVQAGGSLRLSCAASGYTFTLYAMGWYRQAPGKEREFVAAISIGGDSTYYADSVKGRFTISRDNAKNTVYLQMNSLKPEDTAVYYCAADTYQRWILLIGELQVETSYDYWGQGTQVTVSS,low polyreactivity
13,QVQHVESGGGLVQEGGSLRLSCAASGITFGRNTMGWYRQAPGKERELVAAIDSGGNTYADSVKGRFTISRDNAKNTVYLQMNSLKPVDTAVYSCAVDGGEFSSYGYWGQGTQVTVSS,low polyreactivity
14,QVQLVESGGGLVQAGGSLRLSCAASGFTINGNAMGWYRQAPGKERELVAAITWRGGSTYYADSVKGRFTISRDNAKNTVYLQMNSLKPEDTAVYYCNVEGWYDYDYWGQGTQVTVSS,high polyreactivity
15,QVQLVESGGGLVQAGGSLRVSCAASGFTLQRNTMGWYRQAPGKEREFVAAISVRGGSTYYADSVKGRFTISRDNAQNTVYLQMNSLKPEDTAVYYCAAVGRPTQYSYPYGYWGQGTQVTVSS,high polyreactivity
16,QVQLVESGGGLVQAGGSLRLSCAASGSTFFGNAMGWYIQAPGKERELVAAIRFSGVGTYYADSVKGRFTISRDNAKNTVYLQLNSLKPEYTEVFYCAAESYYKYYWGQGTQVTVSS,low polyreactivity
17,QVQLVESGGGLVQAGGSLRLSCAASGYTLNIYGMGWYRQATGKERELVAAISRGGSTNYADSVKGRFTISRDNAKNTVYLQMNSLKPEDTAVYYCAKVYNYRSVRYYYWGQGTQVTVSS,high polyreactivity
18,QVQLVESGGGLVQAGGSLRLSCAASGFTFLWYAMGWYRQAPGKERELVAGISSDGSTYADSVKGRFTISRDNAKNTVYLQMNSLKQEDTAVYYCAAVNNSSIRDNDYWGQGTQVTVSS,low polyreactivity
19,QVQLVESGGGLVQAGGSHRLSCAASGSTFLINAMGWYRQAPGKERELVAAISRDGSTNYADSVKGRFTISRDNAKNTVYLQMNSLKPDDTAVYYCAADEQAYYVRRFDYWGEGTQVTVSS,low polyreactivity
20,QVQLVESVGGLVQAGGSLRLSCAASGRILYLNVMGWYRQAPGKERELVASITVSGGITYYADSVKGRFTISRDNAKNTVYLQMNSLKPEDTAVYYCAVDAYPPFFYFTSVWFSYDYWGQGTQVTVSS,low polyreactivity
21,QVQLVESGGGLVQAGGSLRLSCAASGFTFGRYAMGWYRQAPGKERELVAAISSSGSSTYYADSVKGRFTLSRDNAKNTVYLQMNSLKPEDTAVYYCNTRCRKHPSSYPYDYWGQGTQVTVSS,high polyreactivity

# — the nanobody polyreactivity screen of Harvey et al. (2022)
